What was measured:
[1] = tested on: Sleeping Beauty transposase SB10 (synthetic (Sleeping Beauty, reconstructed salmonid Tc1/mariner)?); experiment: cell_activity; details: transposition in HeLa
[2] = tested on: Sleeping Beauty transposase N123 (PAIRED DNA-binding domain, PAI+RED) (synthetic (Sleeping Beauty, reconstructed salmonid Tc1/mariner)?); experiment: EMSA; details: reference for CAST sequences

| Sequence | activity (% of wild-type transposon) [1] | binding signal [2] [fold] |
| --- | --- | --- |
| GTGACGACCCCAAGTGTACATACACGCGCC (double strand) [pT/neo transposon with 14DRs replaced by CAST-5] | 3 | – |
| GTGACGACCCCAAGTGTACATACACGCGCC (double strand) [pT/neo transposon with 12DRs replaced by CAST-5] | 65 | – |
| GTGACGACCCCAAGTGTACATACACGCGCC (double strand) [pT/neo transposon with all four DRs CAST-5] | 2.2 | – |
| GTACATACACGCGCACTTCTGACCCACTGG (double strand) [pT/neo transposon with CAST-5/wt hybrid inner DRs] | 130 | – |
| ACATACACTTAAGTGTATGTAAACTTCCGACTTCAACTTGG / GACTCCAAGTTGAAGTCGGAAGTTTACATACACTTAAGTGTATGT [14DR (outer DR) probe] | – | 1 |

Reference: US20190169638
